Assay results as given in patent US8679540B2, “Pharmaceutical formulations for the prolonged release of active principle(s), and their applications, especially therapeutic applications” (Flamel Technologies, priority 2006, dated 2014).

Columns and labels:
[1] = Pharmacokinetics of hGH in the dog after subcutaneous injection of nanoparticle and microparticle formulations (Example 12); assay type: in vivo, beagle dogs; conditions: 1 mg/kg hGH
Method: (§1) Twelve naïve beagle dogs (weighing 7 to 10 kg) were treated with the following formulations:
The hGH IR corresponds to a solution of recombinant human growth hormone ([hGH]=4 mg/ml, pH=7.2, 330 mOsm).
Formulation 1 is prepared according to Example 2 and formulation 2 according to Example 7. The hGH is assayed by ELISA (DSL 10-1900 kit).
where: • Cmax is the maximum serum hGH concentration, • T>5 ng/ml is the time when the serum hGH concentration is greater than 5 ng/ml, • AUC represents the area under the curve of serum hGH concentration as a function of time, • RBA represents the bioavailability relative to an Immediate-Release formulation, • T50% auc represents the time required to release 50% of the total hGH released.

[2] = Pharmacokinetics of hGH in the dog after subcutaneous injection of a microparticle formulation (Example 13); assay type: in vivo, beagle dogs; conditions: hGH IR 5 × 0.1 mg/kg per day, Formulation 3 0.5 mg/kg
Method: as §1
The hGH IR corresponds to a solution of recombinant human growth hormone ([hGH]=4.1 mg/ml, pH=7.2, 330 mOsm). Formulation 3 is prepared according to Example 9.

In the case of “hGH IR: solution of recombinant human growth hormone, immediate-release reference”, the “RBA (bioavailability relative to an Immediate-Release formulation)” value [1] was 100%, the “T50% auc ± SD (time required to release 50% of the total hGH released)” value [1] was 4 ± 1 h and the “T > 5 ng/ml ± SD (time when serum hGH concentration is greater than 5 ng/ml)” value [1] was 18 ± 3 h. The “apparent T½ (elimination)” value [1] was “about 2 hours”, the “median time to reach maximum serum concentration” value [1] was 2 h and the “time beyond which circulating hGH is no longer quantifiable” value [1] was 24 h. The “AUC0-last ± SD” value ([1]; serum hGH) was 3209 ± 276 ng·h/mL, the “Cmax ± SD (maximum serum hGH concentration)” value ([1]; serum, ELISA, 1 mg/kg) was 582 ± 155 ng/mL and the “AUC0-last ± SD” value [2] was 258 ± 26 ng·h/mL. The “Cmax ± SD (maximum serum hGH concentration)” value [2] was 90 ± 24 ng/mL, the “RBA (bioavailability relative to an Immediate-Release formulation)” value [2] was 100% and the “T50% auc ± SD” value [2] was 2 ± 0.3 h. For the same substance, the “T > 1 ng/ml ± SD” value [2] was 39 h.
